Sequences and labels used below:
B1: PSD2 (parent)
chain: PLMGETQERERVLTHFSRRYCQCN
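Further: lentivirally expressed fusions sorted by FACS into six bins by GFP to DsRed ratio, PSI derived from sequencing read proportions per bin multiplied by bin number.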

The variants in the data set derive from B1. Nature of the data set: protein stability index of a GFP-peptide fusion (GPS, HEK-293T) (PSI 1-6); higher = more stable. The note with it: c terminus: a fixed tail appended.
On to PLMGETQERERVHTHFSRRYCQCN [L13H], for which the protein stability index was 3.6.
As to PLMGETQERERVFTHFSRRYCQCN [L13F], the protein stability index stood at 2.51.
The result for PLMGETQERERDLTHFSRRYCQCN [V12D] reads 2.81; that for PLMGETQERERQLTHFSRRYCQCN [V12Q], 3.6; that for PLMGETQERERKLTHFSRRYCQCN [V12K], 2.96.
On to PLMGETQERERSLTHFSRRYCQCN [V12S], for which the protein stability index is 3.03.
With PAMGETQERERVLTHFSRRYCQCN [L2A], the protein stability index is 3.59.
Turning to PTMGETQERERVLTHFSRRYCQCN [L2T], the protein stability index was 3.01.
With PVMGETQERERVLTHFSRRYCQCN [L2V], the protein stability index was found to be 3.35.
Regarding PNMGETQERERVLTHFSRRYCQCN [L2N], the protein stability index stood at 3.42.
For PLMGEAQERERVLTHFSRRYCQCN [T6A], the protein stability index worked out at 3.27.
For PLMGEFQERERVLTHFSRRYCQCN [T6F], the protein stability index is 2.22.
PLMGETQERERVLTHSSRRYCQCN [F16S]: the protein stability index was 4.35.
For PLMGETQERERVLTHDSRRYCQCN [F16D], the protein stability index amounted to 4.44.
Consider PLMGETQERERVLTHCSRRYCQCN [F16C], for which the protein stability index came out at 4.41.
Regarding PLMGETQERERVLTHHSRRYCQCN [F16H], the protein stability index was determined as 4.05.
For PLMGETQERERVLTHKSRRYCQCN [F16K] the value was 3; for PLMGETQERERVLTHPSRRYCQCN [F16P], 3.9.
For PLAGETQERERVLTHFSRRYCQCN [M3A], the protein stability index is 3.72.
With PLWGETQERERVLTHFSRRYCQCN [M3W], the protein stability index worked out at 2.79.
With PLKGETQERERVLTHFSRRYCQCN [M3K], the protein stability index is 3.13.
On to PLRGETQERERVLTHFSRRYCQCN [M3R], for which the protein stability index was 2.44.
As to PLMGETQERERVLTLFSRRYCQCN [H15L], the protein stability index amounted to 2.7.
PLMGETQERERVLTGFSRRYCQCN [H15G]: the protein stability index came to 3.07.
Consider PLMGETQERERVLTEFSRRYCQCN [H15E], for which the protein stability index was 4.15.
Turning to PLMGETQERERVLTQFSRRYCQCN [H15Q], the protein stability index stood at 1.99.
For the variant PLMGETQERERVLTNFSRRYCQCN [H15N], the protein stability index is 3.02.
Regarding PLMGETQERERVLTVFSRRYCQCN [H15V], the protein stability index turned out to be 2.31.
Turning to PLMGETQERERVLTHFSRRYCQFN [C23F], the protein stability index is 3.18.
As to PLMGETQERERVLTHFSRRYCQHN [C23H], the protein stability index was 3.44.
For PLMGETQERERVLTHFSRRYCQSN [C23S], the protein stability index was found to be 3.87.
With PLMGETQERERVLTHFSRRYCQDN [C23D], the protein stability index worked out at 4.04.
As for ILMGETQERERVLTHFSRRYCQCN [P1I], the protein stability index came to 2.04.
The result for WLMGETQERERVLTHFSRRYCQCN [P1W] reads 2.3; that for VLMGETQERERVLTHFSRRYCQCN [P1V], 2.4; that for CLMGETQERERVLTHFSRRYCQCN [P1C], 2.34.
On to RLMGETQERERVLTHFSRRYCQCN [P1R], for which the protein stability index worked out at 4.31.
Take PLMGETQERERVLTHFCRRYCQCN [S17C]: the protein stability index was found to be 4.84.
As for PLMGETQERERVLTHFVRRYCQCN [S17V], the protein stability index was 2.44.
Regarding PLMGETQERERVLTHFPRRYCQCN [S17P], the protein stability index was determined as 3.18.
The result for PLMGETQERERVLTHFGRRYCQCN [S17G] reads 3.85; that for PLMGETQERERVLTHFTRRYCQCN [S17T], 2.15.
For the variant PLMGETQERERVLTHFKRRYCQCN [S17K], the protein stability index stood at 2.95.
Take PLMGETQERERVLTHFIRRYCQCN [S17I]: the protein stability index was found to be 1.49.
As for PLMGETQERERVLTHFFRRYCQCN [S17F], the protein stability index was 1.68.
As to PLMGETQERERVLTHFNRRYCQCN [S17N], the protein stability index was 3.15.
The result for PLMGETQERERVLTHFSRRTCQCN [Y20T] reads 3.63; that for PLMGETQERERVLTHFSRRDCQCN [Y20D], 4.19.
For PLMGETQERERVLTHFSRRVCQCN [Y20V] the value was 4.11; for PLMGETQERERVLTHFSRRPCQCN [Y20P], 3.72.
Turning to PLMGETQERERVLTHFSRRFCQCN [Y20F], the protein stability index was determined as 2.96.
Regarding PLMGETQERERVLTHFSERYCQCN [R18E], the protein stability index amounted to 4.21.
For PLMGETQERERVLTHFSSRYCQCN [R18S], the protein stability index amounted to 3.54.
Consider PLMGETQERERVLTHFSWRYCQCN [R18W], for which the protein stability index came out at 1.79.
For PLMGETQERERVLTHFSGRYCQCN [R18G] the value was 4.12.
Turning to PLMGETQERERVLTHFSRRYCHCN [Q22H], the protein stability index is 2.62.
For PLMGETQERERVLTHFSRRYCECN [Q22E], the protein stability index was found to be 3.96.
With PLMGETQERERVLTHFSRRYCSCN [Q22S], the protein stability index was 3.04.
For PLMGETQERERVLTHFSRRYCMCN [Q22M], the protein stability index is 2.1.
Regarding PLMGETQERERVLTHFSRRYCFCN [Q22F], the protein stability index came to 2.42.
For PLMGETQERERVLTHFSRRYCRCN [Q22R] the value was 3.98.
For PLMGETQERERVLTHFSRRYCDCN [Q22D], the protein stability index was 3.85.
As for PLMGETQERERVLTHFSRRYCCCN [Q22C], the protein stability index worked out at 2.11.
Regarding PLMGETQERERVLTHFSRRYCPCN [Q22P], the protein stability index amounted to 2.71.
With PLMGETQERERVLTHFSRRYCLCN [Q22L], the protein stability index turned out to be 2.39.
With PLMGETQGRERVLTHFSRRYCQCN [E8G], the protein stability index turned out to be 2.35.
As for PLMGETQPRERVLTHFSRRYCQCN [E8P], the protein stability index was 2.27.
For PLMGETQQRERVLTHFSRRYCQCN [E8Q] the value was 3.54; for PLMGETQERERVLTHFSRYYCQCN [R19Y], 1.98.
Turning to PLMGETQERERVLTHFSREYCQCN [R19E], the protein stability index amounted to 3.74.
PLMGETQERERVLTHFSRQYCQCN [R19Q]: the protein stability index amounted to 3.29.
Take PLMGETQERERVLTHFSRVYCQCN [R19V]: the protein stability index came to 3.09.
Consider PLMGETQERERVLTHFSRDYCQCN [R19D], for which the protein stability index was determined as 3.25.
For PLMGETQERERVLTHFSRMYCQCN [R19M], the protein stability index is 2.22.
With PLMGETQERERVLTHFSRFYCQCN [R19F], the protein stability index was 2.88.
In the case of PLMGETQERERVLTHFSRIYCQCN [R19I], the protein stability index was 2.54.
The result for PLMGETQERERVLTHFSRKYCQCN [R19K] reads 3.17.
As to PLMGETMERERVLTHFSRRYCQCN [Q7M], the protein stability index is 2.22.
As to PLMGETNERERVLTHFSRRYCQCN [Q7N], the protein stability index turned out to be 2.9.
As to PLMGETLERERVLTHFSRRYCQCN [Q7L], the protein stability index stood at 2.61.
As to PLMGETVERERVLTHFSRRYCQCN [Q7V], the protein stability index turned out to be 3.27.
In the case of PLMGETFERERVLTHFSRRYCQCN [Q7F], the protein stability index was 2.73.
Regarding PLMGETQERERVLTHFSRRYGQCN [C21G], the protein stability index came out at 4.23.
In the case of PLMGETQERERVLTHFSRRYWQCN [C21W], the protein stability index was determined as 3.17.
PLMGETQERERVLTHFSRRYDQCN [C21D]: the protein stability index came out at 4.01.
As for PLMGETQERERVLTHFSRRYTQCN [C21T], the protein stability index was found to be 4.43.
For PLMGETQERERVLYHFSRRYCQCN [T14Y], the protein stability index came out at 1.71.
For PLMGETQERERVLLHFSRRYCQCN [T14L] the value was 2.02.
Regarding PLMGETQERLRVLTHFSRRYCQCN [E10L], the protein stability index stood at 2.27.
For the variant PLMGETQERQRVLTHFSRRYCQCN [E10Q], the protein stability index was 2.33.
The result for PLMGETQERARVLTHFSRRYCQCN [E10A] reads 2.07; that for PLMGETQERWRVLTHFSRRYCQCN [E10W], 1.87.
On to PLMGETQERHRVLTHFSRRYCQCN [E10H], for which the protein stability index amounted to 2.23.
For PLMGETQERCRVLTHFSRRYCQCN [E10C], the protein stability index came to 2.92.

Values taken from the supplement of paper PMC10567573.
